Substitutions are numbered along the chain they refer to. In names and notes the source's numbering stands.
B1: reovirus nonstructural protein σNS, wild type, in vitro expressed (natural protein)
chain: MASSLRAAISKIKRDDVGQQVCPNYVMLRSSVTTKVVRNVVEYQIRTGGFFSCLAMLRPLQYAKRERLLGQRNLERISTRDILQTRDLHSLCMPTPDAPMSNHQASTMRELICSYFKVDHADGLKYIPMDERYSPSSLARLFTMGMAGLHITTEPSYKRVPIMHLAADLDCMTLALPYMITLDGDTVVPVAPTLSAEQLLDDGLKGLACMDISYGCEVDANSRPAGDQSMDSSRCINELYCEETAEAICVLKTCLVLNCMQFKLEMDDLAHNAAELDKIQMMIPFSERVFRMASSFATIDAQCFRFCVMMKDKNLKIDMRETTRLWTRSASDDSVATSSLSISLDRGRWVAADASDARLLVFPIRV
modifications: [35S]methionine-labelled
notes: nonstructural protein σNS of mammalian orthoreovirus (reovirus) strain T3D, S3 gene; same plasmid as m1, expressed in reticulocyte lysate; also called WT σNS; source: in vitro translated (TNT T7 polymerase-coupled rabbit reticulocyte lysate), not purified
B2: σNS R29A, in vitro expressed (natural protein)
chain: B1 chain with R29A
modifications: [35S]methionine-labelled
notes: nonstructural protein σNS of mammalian orthoreovirus (reovirus) strain T3D, S3 gene; same plasmid as m7; also called R29A σNS; source: in vitro translated (TNT T7 polymerase-coupled rabbit reticulocyte lysate), not purified
B3: σNS R14A, in vitro expressed (natural protein)
chain: B1 chain with R14A
modifications: [35S]methionine-labelled
notes: nonstructural protein σNS of mammalian orthoreovirus (reovirus) strain T3D, S3 gene; same plasmid as m4; also called R14A σNS; source: in vitro translated (TNT T7 polymerase-coupled rabbit reticulocyte lysate), not purified
B4: σNS R6A, in vitro expressed (natural protein)
chain: B1 chain with R6A
modifications: [35S]methionine-labelled
notes: nonstructural protein σNS of mammalian orthoreovirus (reovirus) strain T3D, S3 gene; same plasmid as m2; also called R6A σNS; source: in vitro translated (TNT T7 polymerase-coupled rabbit reticulocyte lysate), not purified
B5: σNS K35A, in vitro expressed (natural protein)
chain: B1 chain with K35A
modifications: [35S]methionine-labelled
notes: nonstructural protein σNS of mammalian orthoreovirus (reovirus) strain T3D, S3 gene; same plasmid as m8; also called K35A σNS; source: in vitro translated (TNT T7 polymerase-coupled rabbit reticulocyte lysate), not purified
B6: σNS Y25A, in vitro expressed (natural protein)
chain: B1 chain with Y25A
modifications: [35S]methionine-labelled
notes: nonstructural protein σNS of mammalian orthoreovirus (reovirus) strain T3D, S3 gene; same plasmid as m6; also called Y25A σNS; source: in vitro translated (TNT T7 polymerase-coupled rabbit reticulocyte lysate), not purified
B7: σNS K11A, in vitro expressed (natural protein)
chain: B1 chain with K11A
modifications: [35S]methionine-labelled
notes: nonstructural protein σNS of mammalian orthoreovirus (reovirus) strain T3D, S3 gene; same plasmid as m3; also called K11A σNS; source: in vitro translated (TNT T7 polymerase-coupled rabbit reticulocyte lysate), not purified
B8: σNS R38A, in vitro expressed (natural protein)
chain: B1 chain with R38A
modifications: [35S]methionine-labelled
notes: nonstructural protein σNS of mammalian orthoreovirus (reovirus) strain T3D, S3 gene; same plasmid as m9; also called R38A σNS; source: in vitro translated (TNT T7 polymerase-coupled rabbit reticulocyte lysate), not purified
B9: σNS TriA (K11A, K13A, and R14A), in vitro expressed (natural protein)
chain: B1 chain with K11A, K13A, R14A
modifications: [35S]methionine-labelled
notes: nonstructural protein σNS of mammalian orthoreovirus (reovirus) strain T3D, S3 gene; same plasmid as m5; also called TriA σNS; source: in vitro translated (TNT T7 polymerase-coupled rabbit reticulocyte lysate), not purified

Biological target: the molecule itself
Assay: native gel or EMSA; 35S-labelled σNS expressed in rabbit reticulocyte lysate, incubated with 10 μg RNase A at 37°C for 1 h; blue native PAGE, 4-16% bis-Tris, 4°C; autoradiography

For B1, the “stoichiometry N” value was 2.

Biological target: the molecule itself
Assay: native gel or EMSA; 35S-labelled σNS expressed in rabbit reticulocyte lysate, incubated without RNase A (125 mM NaCl) at 37°C for 1 h; blue native PAGE, 4-16% bis-Tris, 4°C; autoradiography; RNA of the lysate present, the ladders of oligomers are RNA-dependent

Compared with B1, B2 is lower in “stoichiometry N” value: no less than 6 for the first, 2 for the second.

B3 and B4 are the same in “stoichiometry N” value: 2 for the first, 2 for the second.

B5 and B6 are the same in “stoichiometry N” value: 2 for the first, 2 for the second.

B7 and B8 are the same in “stoichiometry N” value: 2 for the first, 2 for the second.

B9 was tested, and the “stoichiometry N” value was 2.
